Measurements as given in paper PMC9490040, “Mechanistic insight into the RNA-stimulated ATPase activity of tick-borne encephalitis virus helicase”.

Target: NS3H (NS3 helicase domain) WT (Tick-borne encephalitis virus strain …, UniProt Q01299 1662-2110)
Test: fluorescence anisotropy; 1 mM Mg2+; no nucleotide; apparent KD; 20 mM Tris-HCl pH 7.5, 100 mM NaCl, 1 mM MgCl2, 7.5% glycerol; 45 min at 30 C; […]
Details: protein: recombinant; tags: N-terminal 10xHis (pET-19b); label: 5' 6-FAM; single strand

Sequence of NS3H (NS3 helicase domain) WT (Q01299 1662-2110): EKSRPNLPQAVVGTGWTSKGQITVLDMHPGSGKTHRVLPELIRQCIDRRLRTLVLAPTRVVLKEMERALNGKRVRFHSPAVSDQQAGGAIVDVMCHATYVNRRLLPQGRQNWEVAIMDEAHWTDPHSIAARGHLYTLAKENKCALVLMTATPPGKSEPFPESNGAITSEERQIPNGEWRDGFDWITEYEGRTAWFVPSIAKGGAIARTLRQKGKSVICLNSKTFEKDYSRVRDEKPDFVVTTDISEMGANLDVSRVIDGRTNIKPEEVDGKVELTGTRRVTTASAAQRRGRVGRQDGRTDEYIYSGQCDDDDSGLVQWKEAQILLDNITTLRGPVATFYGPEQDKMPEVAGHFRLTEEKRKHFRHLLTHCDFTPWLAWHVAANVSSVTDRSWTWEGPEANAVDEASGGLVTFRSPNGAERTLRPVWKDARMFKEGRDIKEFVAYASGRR

Binder: AGAUUUUCUUGC (ssRNA) [6-FAM-ssRNA12]
- Kd: 49.7 ± 9.3 nM
